PMC4144951, “Dissecting the Functional Role of the N-Terminal Domain of the Human Small Heat Shock Protein HSPB6” (PLoS ONE, 2014)

T1: human HSPB6, wild type, full length (human), O14558
T1 chain: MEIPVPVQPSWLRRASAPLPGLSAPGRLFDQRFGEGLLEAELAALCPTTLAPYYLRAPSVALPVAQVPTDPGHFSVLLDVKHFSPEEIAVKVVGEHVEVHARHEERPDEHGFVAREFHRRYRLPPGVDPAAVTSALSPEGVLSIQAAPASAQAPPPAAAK


Legend:
[1] = biological target: HSPB6 Δ31–35 (human) (UniProt O14558); test: SEC; data not shown; three loaded concentrations, no larger oligomeric species seen; size of the oligomer (dimer)
[2] = biological target: HSPB6 Δ31–35 (human) (UniProt O14558); test: SEC-coupled SAXS; inline HPLC, Shodex KW404-4F, 20°C, 20 mM HEPES, 150 mM NaCl, pH 7.4, 2.5 mM DTT; 75 µl of 5 mg/ml HSPB6 or equivalent molarity loaded (ΔN11: 111 µl of 3.37 mg/ml); mass at the peak maximum from I0 and Porod volume; number of subunits of the oligomer
[3] = biological target: HSPB6 Δ31–40 (human) (UniProt O14558); test: as above
[4] = biological target: T1, human HSPB6, wild type, full length …; test: as above; settings: remark: other sources report otherwise
[5] = biological target: T1, human HSPB6, wild type, full length …; test: SEC; data not shown; three loaded concentrations, no larger oligomeric species seen; size of the oligomer (dimer); settings: remark: other sources report otherwise
[6] = biological target: T1, human HSPB6, wild type, full length …; test: SEC; 100 µl at 2.5, 5 and 10 mg/ml on Superdex 200 10/300 GL, 4°C, 25 mM HEPES pH 7.5, 150 mM NaCl, 2.5 mM DTT; apparent MW from column calibration; the shift of the peak with loaded concentration is read as self-association of the dimers with each other (dimer to higher species); settings: remark: other sources report otherwise
[7] = biological target: the molecule itself; test: SEC-coupled SAXS; inline HPLC, Shodex KW404-4F, 20°C, 20 mM HEPES, 150 mM NaCl, pH 7.4, 2.5 mM DTT; 75 µl of 5 mg/ml HSPB6 or equivalent molarity loaded (ΔN11: 111 µl of 3.37 mg/ml); mass at the peak maximum from I0 and Porod volume; number of subunits of the oligomer
[8] = biological target: human recombinant insulin (human, UniProt P01308 25-54; P01308 90-110); test: cell-based or functional assay
Chain of human recombinant insulin (P01308 25-54, chain 1 of 2): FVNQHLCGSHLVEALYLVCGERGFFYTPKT
Chain of human recombinant insulin (P01308 90-110, chain 2 of 2): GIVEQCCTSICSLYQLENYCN

[9] = biological target: the molecule itself; test: SEC; 100 µl at 2.5, 5 and 10 mg/ml on Superdex 200 10/300 GL, 4°C, 25 mM HEPES pH 7.5, 150 mM NaCl, 2.5 mM DTT; apparent MW from column calibration; the shift of the peak with loaded concentration is read as self-association of the dimers with each other (dimer to higher species)
[10] = biological target: the molecule itself; test: as above; remark: listed apart in the source
[11] = biological target: the molecule itself; test: SEC; data not shown; three loaded concentrations, no larger oligomeric species seen; size of the oligomer (dimer)

Molecule | stoichiometry N [7] [subunits] | concentration dependence of apparent MW [9] | other results
HSPB6 Δ31–35 (from UniProt O14558 1-160) (natural protein) | – | – | stoichiometry N [1]: 2; stoichiometry N [2]: 2.2 subunits
HSPB6 Δ31–40 (from UniProt O14558 1-160) (natural protein) | – | – | stoichiometry N [3]: 2 subunits
human HSPB6, wild type, full length, O14558 1-160 (natural protein) MEIPVPVQPSWLRRASAPLPGLSAPGRLFDQRFGEGLLEAELAALCPTTLAPYYLRAPSVALPVAQVPTDPGHFSVLLDVKHFSPEEIAVKVVGEHVEVHARHEERPDEHGFVAREFHRRYRLPPGVDPAAVTSALSPEGVLSIQAAPASAQAPPPAAAK | – | – | stoichiometry N [4]: 2.2 subunits; stoichiometry N [5]: 2; concentration dependence of apparent MW [6]: 1.51 kDa/(mg/ml)
HSPB6 Δ11–20 (natural protein, human, UniProt O14558 1-160, looked up, HSPB6, human, full-length protein with residues 11-20 deleted; also called ΔN11–20; source: E. coli NiCo21 (DE3) with pRARE2, purified (subtractive IMAC, anion exchange, SEC); not shown: SUMO, N-terminal, cleaved) MEIPVPVQPSGLSAPGRLFDQRFGEGLLEAELAALCPTTLAPYYLRAPSVALPVAQVPTDPGHFSVLLDVKHFSPEEIAVKVVGEHVEVHARHEERPDEHGFVAREFHRRYRLPPGVDPAAVTSALSPEGVLSIQAAPASAQAPPPAAAK | 1.8 | 0.81 kDa/(mg/ml) | percentage protection against DTT-induced aggregation of insulin (A340 after 90 min, 37°C), insulin:sHSP 1:0.2 to 1:0.05 [8]: ~50 % decrease
HSPB6 Δ21–30 (natural protein, human, UniProt O14558 1-160, looked up, HSPB6, human, full-length protein with residues 21-30 deleted; source: E. coli NiCo21 (DE3) with pRARE2, purified (subtractive IMAC, anion exchange, SEC); not shown: SUMO, N-terminal, cleaved) MEIPVPVQPSWLRRASAPLPQRFGEGLLEAELAALCPTTLAPYYLRAPSVALPVAQVPTDPGHFSVLLDVKHFSPEEIAVKVVGEHVEVHARHEERPDEHGFVAREFHRRYRLPPGVDPAAVTSALSPEGVLSIQAAPASAQAPPPAAAK | 2.2 | 1.29 kDa/(mg/ml) | percentage protection against DTT-induced aggregation of insulin (A340 after 90 min, 37°C), insulin:sHSP 1:0.2 to 1:0.05 [8]: ~50 % decrease
HSPB6 Δ41–50 (natural protein, human, UniProt O14558 1-160, looked up, HSPB6, human, full-length protein with residues 41-50 deleted; source: E. coli NiCo21 (DE3) with pRARE2, purified (subtractive IMAC, anion exchange, SEC); not shown: SUMO, N-terminal, cleaved) MEIPVPVQPSWLRRASAPLPGLSAPGRLFDQRFGEGLLEAAPYYLRAPSVALPVAQVPTDPGHFSVLLDVKHFSPEEIAVKVVGEHVEVHARHEERPDEHGFVAREFHRRYRLPPGVDPAAVTSALSPEGVLSIQAAPASAQAPPPAAAK | 2.3 | 1.92 kDa/(mg/ml) | percentage protection against DTT-induced aggregation of insulin (A340 after 90 min, 37°C), insulin:sHSP 1:0.2 to 1:0.05 [8]: ~50 % decrease
HSPB6 Δ51–60 (natural protein, human, UniProt O14558 1-160, looked up, HSPB6, human, full-length protein with residues 51-60 deleted; source: E. coli NiCo21 (DE3) with pRARE2, purified (subtractive IMAC, anion exchange, SEC); not shown: SUMO, N-terminal, cleaved) MEIPVPVQPSWLRRASAPLPGLSAPGRLFDQRFGEGLLEAELAALCPTTLALPVAQVPTDPGHFSVLLDVKHFSPEEIAVKVVGEHVEVHARHEERPDEHGFVAREFHRRYRLPPGVDPAAVTSALSPEGVLSIQAAPASAQAPPPAAAK | 1.9 | 0.31 kDa/(mg/ml) | percentage protection against DTT-induced aggregation of insulin (A340 after 90 min, 37°C), insulin:sHSP 1:0.2 to 1:0.05 [8]: ~50 % decrease
HSPB6 Q31A (natural protein, human, UniProt O14558 1-160, looked up, HSPB6, human, full-length protein with the point mutation Q31A; Mixture of dimers and what appear to be tetramers; source: E. coli NiCo21 (DE3) with pRARE2, purified (subtractive IMAC, anion exchange, SEC); not shown: SUMO, N-terminal, cleaved) MEIPVPVQPSWLRRASAPLPGLSAPGRLFDARFGEGLLEAELAALCPTTLAPYYLRAPSVALPVAQVPTDPGHFSVLLDVKHFSPEEIAVKVVGEHVEVHARHEERPDEHGFVAREFHRRYRLPPGVDPAAVTSALSPEGVLSIQAAPASAQAPPPAAAK | 4.2 | 1.1 kDa/(mg/ml) | stoichiometry N [10]: ~4
HSPB6 ΔN11 (domain or fragment, human, UniProt O14558 12-160, looked up, HSPB6, human, without its first 11 residues (ΔN10 begins with the sole tryptophan; ΔN11 removes it too); Prone to aggregate; could not be concentrated above about 4-5 mg/ml; also called ΔN11-construct; source: E. coli NiCo21 (DE3) with pRARE2, purified (subtractive IMAC, anion exchange, SEC); not shown: SUMO, N-terminal, cleaved) LRRASAPLPGLSAPGRLFDQRFGEGLLEAELAALCPTTLAPYYLRAPSVALPVAQVPTDPGHFSVLLDVKHFSPEEIAVKVVGEHVEVHARHEERPDEHGFVAREFHRRYRLPPGVDPAAVTSALSPEGVLSIQAAPASAQAPPPAAAK | 2.5 | – | –
HSPB6 Δ61–70 (natural protein, human, UniProt O14558 1-160, looked up, HSPB6, human, full-length protein with residues 61-70 deleted; By SAXS closer to a tetramer than to a dimer; source: E. coli NiCo21 (DE3) with pRARE2, purified (subtractive IMAC, anion exchange, SEC); not shown: SUMO, N-terminal, cleaved) MEIPVPVQPSWLRRASAPLPGLSAPGRLFDQRFGEGLLEAELAALCPTTLAPYYLRAPSVPGHFSVLLDVKHFSPEEIAVKVVGEHVEVHARHEERPDEHGFVAREFHRRYRLPPGVDPAAVTSALSPEGVLSIQAAPASAQAPPPAAAK | 3.5 | 3.4 kDa/(mg/ml) | –
HSPB6 Q31L (natural protein, human, UniProt O14558 1-160, looked up, HSPB6, human, full-length protein with the point mutation Q31L; source: E. coli NiCo21 (DE3) with pRARE2, purified (subtractive IMAC, anion exchange, SEC); not shown: SUMO, N-terminal, cleaved) MEIPVPVQPSWLRRASAPLPGLSAPGRLFDLRFGEGLLEAELAALCPTTLAPYYLRAPSVALPVAQVPTDPGHFSVLLDVKHFSPEEIAVKVVGEHVEVHARHEERPDEHGFVAREFHRRYRLPPGVDPAAVTSALSPEGVLSIQAAPASAQAPPPAAAK | 4.3 | 1.87 kDa/(mg/ml) | –
HSPB6 F33A (natural protein, human, UniProt O14558 1-160, looked up, HSPB6, human, full-length protein with the point mutation F33A; source: E. coli NiCo21 (DE3) with pRARE2, purified (subtractive IMAC, anion exchange, SEC); not shown: SUMO, N-terminal, cleaved) MEIPVPVQPSWLRRASAPLPGLSAPGRLFDQRAGEGLLEAELAALCPTTLAPYYLRAPSVALPVAQVPTDPGHFSVLLDVKHFSPEEIAVKVVGEHVEVHARHEERPDEHGFVAREFHRRYRLPPGVDPAAVTSALSPEGVLSIQAAPASAQAPPPAAAK | 2.3 | – | –
HSPB6 F33Y (natural protein, human, UniProt O14558 1-160, looked up, HSPB6, human, full-length protein with the point mutation F33Y; source: E. coli NiCo21 (DE3) with pRARE2, purified (subtractive IMAC, anion exchange, SEC); not shown: SUMO, N-terminal, cleaved) MEIPVPVQPSWLRRASAPLPGLSAPGRLFDQRYGEGLLEAELAALCPTTLAPYYLRAPSVALPVAQVPTDPGHFSVLLDVKHFSPEEIAVKVVGEHVEVHARHEERPDEHGFVAREFHRRYRLPPGVDPAAVTSALSPEGVLSIQAAPASAQAPPPAAAK | 1.9 | – | –
HSPB6 Δ36–40 (natural protein, human, UniProt O14558 1-160, looked up, HSPB6, human, full-length protein with residues 36-40 deleted; source: E. coli NiCo21 (DE3) with pRARE2, purified (subtractive IMAC, anion exchange, SEC); not shown: SUMO, N-terminal, cleaved) MEIPVPVQPSWLRRASAPLPGLSAPGRLFDQRFGEELAALCPTTLAPYYLRAPSVALPVAQVPTDPGHFSVLLDVKHFSPEEIAVKVVGEHVEVHARHEERPDEHGFVAREFHRRYRLPPGVDPAAVTSALSPEGVLSIQAAPASAQAPPPAAAK | – | 1.8 kDa/(mg/ml) | stoichiometry N [11]: 2
